Data as given in paper PMC6694833, “Rational Design of Zika Virus Subunit Vaccine with Enhanced Efficacy” (Journal of Virology, 2019).

B1: ZV-67, ZIKV EDIII-specific neutralizing MAb (antibody, V domains shown)
VH: QAQLQQSGTGLARPGASVKLSCKASGYTFTSYGISWVTQRAGQGLEWIGVIYPRSGNTYYNEKFRGKATLTADKSSSSAYMELRGLTAEDSAVYFCARENYGSVYWGQGTTLTVSS
VL: DIVMTQSQKFMSTSVGDRVSITCKASQNVGTAVAWYQQKPGQSPKLLIYSASNRYTGVPDRFTGSGSGTDFTLTISNMQSEDLADYFCQQFSSYPYTFGGGTKLEIK
notes: also called MAb ZV-67; human MAb ZV-67; source: bought: Absolute Antibody
B2: ZV-2, ZIKV EDIII-specific nonneutralizing mouse MAb (antibody, V domains shown)
VH: QVQLQESGAELMKPGASVKLSCKTSGYTFIGYWIEWLKQRPGHGLEWVGEIFPGSGRTKYNEKFKGRATFTADTSSNMAYMQLSSLTTEDSAIYYCARYYYGSYYALDYWGQGTSVTVSS
VL: DIVMTQSPSSLSVSAGEKVTLSCKSSQSLLHSGNQKNYLAWYQQKPGQAPKLLIYGASTRESGVPDRFTGSGSGTDFTLTISSVQAEDLAVYYCQNDHSYPLTFGAGTKLELK
notes: also called MAb ZV-2; source: bought: BEI Resources

Legend:
ZKA64-LALA = assay: ELISA; conditions: read at the highest MAb concentration plotted (about 2000 ng/ml, estimated from the x axis); parent: est. 3.4; read off a plot
Z004 = assay: ELISA; conditions: read at the highest MAb concentration plotted (about 2000 ng/ml, estimated from the x axis); parent: est. 3.5; read off a plot
[1] = target: ZV-2, ZIKV EDIII-specific nonneutralizing mouse MAb; assay: ELISA; conditions: read at the highest MAb concentration plotted (about 500 ng/ml, estimated from the x axis); parent: est. 3.6; read off a plot
ZV-54 = assay: ELISA; conditions: read at the highest MAb concentration plotted (about 250 ng/ml, estimated from the x axis); parent: est. 3.7; read off a plot
[2] = target: ZV-67, ZIKV EDIII-specific neutralizing MAb; assay: ELISA; conditions: read at the highest MAb concentration plotted (about 500 ng/ml, estimated from the x axis); parent: est. 3.6; read off a plot
[3] = target: T1, ZIKV EDIII protein containing residues 298 to 409 (wild type) fused with a C-terminal human IgG1 Fc tag (Zika virus, strain ZikaSPH2015 (GenBank …, UniProt A0A0U3FSM8, strain)); assay: ELISA; plates coated with wild-type or mutant ZIKV EDIII protein overnight at 4°C, blocked with 2% fat-free milk in PBST; serially diluted MAbs, then HRP-conjugated anti-mouse IgG-Fab or anti-human IgG-Fab, 1 h at 37°C; absorbance at 450 nm; conditions: both partners purified
T1 construct: also called wild-type EDIII; WT EDIII; not shown: Fc (human IgG1), C-terminal, kept

| Molecule | response (ZKA64-LALA) [A450] | response (Z004) [A450] | response [1] [A450] | response (ZV-54) [A450] | response [2] [A450] | binding result [3] |
| --- | --- | --- | --- | --- | --- | --- |
| ZIKV EDIII protein containing residues 298 to 409 (wild type) fused with a C-terminal human IgG1 Fc tag M375N; E377T | 3.4 | 3.5 | 0.15 | 3.7 | 3.6 |  |
| B1 |  |  |  |  |  | binds |
| B2 |  |  |  |  |  | binds |
